Data reported in patent publication US20240059766A1 (VOYAGER THERAPEUTICS, published 2024).
Changes are numbered by the printed parent chain. Non-standard residues stand in square brackets, D forms with d. No end group written: not given here. pT = C[C@@H](OP(=O)(O)O)[C@H](N)C(=O)O; pS = N[C@@H](COP(=O)(O)O)C(=O)O

T1: Tau204-222 phospho-peptide (pT212/pS214) (human, also: SCBiot-(dPEG4) in the ELISA)
T1 peptide: GTPGSRSR[pT]P[pS]LPTPPTRE

T2: Tau204-222 phospho-peptide (pT212) (human, also: SCBiot-(dPEG4) in the ELISA)
T2 peptide: GTPGSRSR[pT]PSLPTPPTRE

T3: Tau204-222 phospho-peptide (pS214) (human, also: SCBiot-(dPEG4) in the ELISA)
T3 peptide: GTPGSRSRTP[pS]LPTPPTRE

T4: wtTau C2 (human)
T4 peptide: PTREPKKVA

T5: AC04 peptide (human, pT212, pT217: CSR(pT)PSLP(pT)PPTREPK)
T5 peptide: CSRXPSLPXPPTREPK

T6: Tau phospho-peptide (pS235) (human)
T6 construct: also called pS235 phospho-peptide
T6 peptide: KVAVVRTPPK[pS]PSSAKPS

T7: AT8 peptide (amino acids 195-215 of tau) (human, phospho-peptide; the phosphorylated sites are not stated; immobilized on streptavidin biosensor tips)
T7 peptide: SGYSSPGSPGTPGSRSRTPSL

T8: AT270 peptide (pT181; Tau172-186) (human)
T8 peptide: PAKTPPAPK[pT]PPSSG

B1: VY004 (antibody, V domains shown)
VH: EVQLVESGGGLVQAGGSLRLSCAASGFTFSDYSMNWVRQAPGKGLEWVSYIRSSSSIIYYADSVKGRFTISRDNAKNSLHLQMNSLRDEDTAVYYCARRGHFDYWGQGTLVTVSS
VL: EIVLTQSPATLSLSPGERATLSCRASQSVSDYLAWYQQKPGQAPRLFIYDVSKRATGIPARFSGSGSGTDFTLTISSLEPEDFAVYYCQQRSNWPLTFGGGTKVEIK
B2: VY005 (antibody, V domains shown)
VH: EVQLVESGGGLVQPGGSLRLSCAASGFTFSSYSMNWVRQAPGKGLEWISYISSSNSTIKYADSVKGRFTISRDNAKNSLYLQMNSLRDEDTAVYYCARRSLGDYWGQGTLVIVSS
VL: DIQLTQSPSFLSASVGDRVTITCRASQGISCSLAWYQQKPGKAPKLLIYAASTLQSGVPSRFSGSGSGTEFTLTISSLQPEDFATYYCQQFNSYPFTFGPGTKVDIK
B3: VY007 (antibody, V domains shown)
VH: EVQLVESGGGLVQPGGSLRLSCAASRFTFSNYNMNWVRQAPGKGLEWISYISSSSSTIYYADSVKGRFTISRDNAKNSLSLQMNSLRDEDTAVYYCASLGRGYWGQGTLVTVSS
VL: not shown
B4: VY001 (antibody, V domains shown)
VH: B3 VH with R26G, N31S, S56N, I70V, S80Y, S98T, T111I, V112A
VL: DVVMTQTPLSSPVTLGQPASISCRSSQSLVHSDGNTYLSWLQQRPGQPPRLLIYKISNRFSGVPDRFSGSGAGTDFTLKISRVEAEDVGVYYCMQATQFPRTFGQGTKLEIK
B5: VY006 (antibody, V domains shown)
VH: B2 VH with S33T, I48V, N55S, K59Y, R98S, R99L, S100G, L101R, Y104C, I112T
VL: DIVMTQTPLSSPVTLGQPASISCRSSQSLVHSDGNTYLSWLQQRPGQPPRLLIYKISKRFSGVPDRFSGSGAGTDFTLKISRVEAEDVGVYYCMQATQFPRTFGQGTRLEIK
B6: VY020 (antibody, V domains shown)
VH: B2 VH
VL: B1 VL with D31S, Q37L, F47L, K53N, S77R, S92R, L96Y, G100Q, V104L
B7: VY009 (antibody, V domains shown)
VH: QITLKESGPTLVKPTQTLTLTCTLSGFSLSTSEVGVGWIRQPPGKALEWLAIIYWNDHKRYSPSLKNRLTFTKDTSKNQVVLTMTNMDPVDTATYYCARRVTGEGFDPWGQGTLVTVSS
VL: SYELTQPPSVSVSPGQTARITCSGDALPKQYAYWYQQKPGQAPVLVIFKDTERPSGIPERFSGSSSGTTVTLTISGVQAEDEADYYCQSADSSGSYVFGTGTKVTVL
B8: VY019 (antibody, V domains shown)
VH: QVQLQESGPGLVKPSETLSLTCTVSGGSISSYYWTWIRQPAGKGLEWIGRIDTSGSTNYNPSLKSRVTMSIDTSKKQFSLKLSSVTAADTAVYYCARGGDGYRYWGQGTLVTVSS
VL: B7 VL with Y33C, F48Y, T51S, S75T, A90T, Y96W, T100G, V104L
B9: VY018 (antibody, V domains shown)
VH: QVQLQESGPGLVKPSETLSLTCTVSGGSISNYYWSWIRQPAGKGLEWIGRIYTSGDTYYNPSLQSRVTMSVDTSKNQFSLKLSAVTAADTAVYYCARAGIVGTPGLGMDVWGQGTTVTVSS
VL: SYELTQPPSVSVSPGQTARITCSGEALPKQYAYWYQQKPGQAPVLVIYKDSERPSGIPERFSGSSSGTTVTLTISGVQAEDEADYYCQSADSSGTYRVFGGGTKLTVL
B10: VY012 (antibody, V domains shown)
VH: EVQLLESGGGLVQPGGSLRLSCAASGFTYSSYAMSWVRRAPGKGLEWISIISGSSSITYYADSMKGRFTISRDNSKNTLFLQMNSLRAEDTAVYYCAKGGRYGYFQHWGQGTLVTVSS
VL: SYVLTQPPSVSVAPGQTARITCGGNNIGSKSVHWYQQKPGQAPVLVVYDDSDRPSGIPERFSGSNSGNTATLTISRVEAGDEADYYCQVWDSSSDPVVFGGGTMLTVL
B11: VY017 (antibody, V domains shown)
VH: B1 VH with A14P, D31S, I57T, N77K, H80Y, G100S, H101I, F102A
VL: EIVLTQSPATLSSSPGERATLSCRASQSVTSYLNWYQQKPGQAPRLLIYDASNRATGIPARFSGSGSGTDFTLTISSLEPEDFALYYCQQRSNWPYTFGQGTKLEIK
B12: VY013 (antibody, V domains shown)
VH: QVTLKESGPVLVKPTETLTLTCTVSGFSLINARMAVSWIRQPPGKALEWLAHIFSNDEKSYSTSLKSRLTISKDTSKSQVVLIMTNMDPVDTATYYCARIRGYSYNYGMDVWGQGTTVTVSS
VL: DIVMTQSPLSLPVIPGEPASISCRSSQSLLHSNGYIYLDWYLQKPGQSPQLLIYVGSNRASGVPDRFSGSGSGTDFKLKISRVEAEDVGVYYCMQTLQIPRTFGGGTKVEIK
B13: VY014 (antibody, V domains shown)
VH: EVQLVESGGGLVQPGGSLRLSCAASGFTFNNYDMHWVRQAAGKGLEWVSTIGAAGDTYYPGSVKGRFIISRENAKNSLYLQMNSLRAGDTAVYYCARAGETLEGATIGYYYGMDVWGQGTTVTVSS
VL: B12 VL with V3L, I14T, I36N, V55L, K77T, I80F, V90L, T96A, R101L
B14: VY016 (antibody, V domains shown)
VH: EVQLVESGGGLVQPGGSLRLSCAASGFTFSSYSMNWVRQAPGKGLEWVSYISRSGSTIYYADSVEGRFTISRDNAYNSLYLQMISLRDDDTAVYYCARGNWAYWGQGILVTVSS
VL: QSVLTQPPSVSGAPGQRVTISCTGSSSNIGAGYDVHWYQQLPGTAPKLLIYGNSNRPSGVPDRFSGSKSGTSASLAITGLQAEDETDFYCQSYDSSLSGSVFGGGTKLTVL

Target: T1, Tau204-222 phospho-peptide (pT212/pS214)
Assay: one point ELISA
Text: (§1) One-point ELISA was used to determine differential binding based on the individual phosphorylation patterns of each peptide. OD values (450 nm) were collected (as shown in Table 13), where a stronger positive signal is shown as a higher OD value, which is indicative of increased binding.

Binder	OD450
B1	0.067 OD450 nm
B2	0.111 OD450 nm

Target: T2, Tau204-222 phospho-peptide (pT212)
Assay: one point ELISA
Text: as §1

Binder	OD450
B1	0.082 OD450 nm
B2	0.087 OD450 nm

Target: T3, Tau204-222 phospho-peptide (pS214)
Assay: one point ELISA
Text: as §1

Binder	OD450
B1	0.069 OD450 nm
B2	0.092 OD450 nm

target: T9, SCBio-4PEG-Peptide (Tau191-214) pS199-old (human, pS199; SCBio-4PEG at the peptide as in the table head); assay: one point ELISA
T9 construct: the suffix old is not explained
Text: as §1

T9 sequence (peptide, as listed by the source): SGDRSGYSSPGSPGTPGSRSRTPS

Binder	OD450
B3	0.057 OD450 nm
B4	0.059 OD450 nm
B5	0.063 OD450 nm

Target: T4, wtTau C2
Assay: one point ELISA
Text: as §1

Binder	OD450
B1	0.169 OD450 nm
B2	0.153 OD450 nm

Target: T5, AC04 peptide
Assay: one point ELISA
Text: as §1

Binder	OD450
B1	2.85 OD450 nm
B2	2.83 OD450 nm

target: T10, Tau191-214 phospho-peptide (pS199) (human, pS199 (phosphoserine); SCBio-4PEG in the ELISA); assay: one point ELISA
T10 construct: also called pS199 peptide
Text: as §1

Binder	OD450
B3	0.057 OD450 nm
B4	0.059 OD450 nm
B5	0.054 OD450 nm

target: T10, Tau191-214 phospho-peptide (pS199); assay: BLI

Binder	binding result
B3	no binding
B4	no binding
B6	no binding
B5	no binding

Target: T6, Tau phospho-peptide (pS235)
Assay: one point ELISA on the pS235 peptide

Binder	binding result
B7	no binding (tested: not printed (one point))
B8	no binding (tested: not printed (one point))
B9	no binding (tested: not printed (one point))

Target: T7, AT8 peptide (amino acids 195-215 of tau)
Assay: BLI (Octet), peptide on streptavidin tip
Method: Briefly, phospho-peptides were immobilized on streptavidin biosensor tips and the binding ability of each antibody was assessed using an eight-point concentration gradient.

Binder	Kd	binding result
B3	0.0182 nM	–
B4	0.00435 nM	–
B6	–	no binding
B5	0.00382 nM	–

target: iPHF (UniProt P10636-8 2-441); assay: BLI (Octet), antibody on biosensor tip
Method: Anti-human tau antibodies were assessed for affinity for iPHF by Octet (ForteBio, Menlo Park, CA) analysis. A set of recombinant human IgG1 antibodies were prepared with clone-specific variable domain pairs selected from those presented in Table 1 and human IgG1 constant domains. Candidate antibodies were immobilized on biosensor tips (ForteBio) in kinetic buffer (ForteBio). Biosensor tips were then washed before introduction of a solution of iPHF in kinetic buffer for analysis of association and dissociation with candidate antibodies.

iPHF, sequence (P10636 other isoform, or with tags, fused parts or gaps): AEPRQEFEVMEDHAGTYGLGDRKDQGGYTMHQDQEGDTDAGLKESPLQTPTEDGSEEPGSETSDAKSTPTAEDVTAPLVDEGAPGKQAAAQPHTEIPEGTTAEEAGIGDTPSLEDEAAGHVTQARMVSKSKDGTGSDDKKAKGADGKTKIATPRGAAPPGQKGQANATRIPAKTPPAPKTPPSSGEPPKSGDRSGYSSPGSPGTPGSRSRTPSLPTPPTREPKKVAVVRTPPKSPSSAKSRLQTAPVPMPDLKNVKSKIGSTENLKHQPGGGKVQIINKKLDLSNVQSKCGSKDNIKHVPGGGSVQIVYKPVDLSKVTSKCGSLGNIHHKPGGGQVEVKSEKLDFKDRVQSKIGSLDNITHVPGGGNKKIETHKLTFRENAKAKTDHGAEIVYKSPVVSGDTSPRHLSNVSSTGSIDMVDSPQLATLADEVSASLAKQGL

Binder	Kd
B3	0.6 nM
B4	7.7 nM
B10	5.1 nM
B7	1.1 nM
B1	3.7 nM
B11	3.7 nM
B6	2.6 nM
B12	2.9 nM
B13	5.3 nM
B2	1 nM
B5	1.5 nM
B9	3 nM

Target: T8, AT270 peptide (pT181; Tau172-186)
Assay: one point ELISA

Binder	binding result
B6	no binding

target: T11, Enriched paired helical filament (ePHF; sarkosyl insoluble tau) (human, UniProt P10636 2-758, pathological (hyperphosphorylated) tau isolated from brain; sites not stated); assay: direct ELISA, coated antigen
T11 construct: aggregate isolated from AD frontal cortical tissue
Method: (§2) A set of recombinant human IgG1 antibodies were prepared with clone-specific variable domain pairs selected from those presented in Table 1 and human IgG1 constant domains. These candidate antibodies were analyzed for binding to ePHF and specificity for ePHF over wild type tau by direct ELISA.
(§3) For direct ePHF and wildtype tau ELISA, plates were first coated with ePHF or wild type tau. Antigen solutions were prepared in PBS and 50 μL were pipetted into each well. Plates were covered and incubated for one hour at 37° C. or overnight at 4° C. Plates were then washed and blocked by addition of 150 μl of blocking buffer to each well and incubated one hour at room temperature. Plates were then washed before addition of serially diluted candidate antibody samples prepared in blocking buffer. Detection of candidate antibody binding was carried out by washing plates and adding a solution of enzyme-labeled secondary antibody in blocking buffer to each well. Secondary antibody binding was detected by addition of substrate and spectrophotometric analysis of resulting reaction product.

T11 sequence (P10636 other isoform, or with tags, fused parts or gaps limits assumed): as the sequence (P10636 other isoform, or with tags, fused parts or gaps) above

Binder	EC50	binding result
B3	0.18 nM	–
B4	0.02 nM	–
B14	–	no binding
B10	0.04 nM	–
B7	1.74 nM	–
B8	–	no binding
B1	0.07 nM	–
B12	0.06 nM	–
B13	6.23 nM	–
B2	0.07 nM	–
B5	0.11 nM	–

target: wild type tau (human, UniProt P10636 2-758); assay: direct ELISA, coated antigen
Method: as §2, §3

wild type tau, sequence (P10636 other isoform, or with tags, fused parts or gaps limits assumed): as the sequence (P10636 other isoform, or with tags, fused parts or gaps) above

Binder	binding result	EC50
B14	no binding	–
B10	–	0.01 nM
B8	no binding	–
B12	–	0.98 nM
B13	–	0.04 nM
